Results taken from the nanobody polyreactivity screen of Harvey et al. (2022).

Assay: yeast display, Sf9 membrane polyspecificity reagent, FACS + sequencing; frameworks hold sequencing errors
Summary of the method: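 Nanobodies came from a synthetic yeast display library in Saccharomyces cerevisiae BJ5465, induced with galactose for 36–48 hours and stained for 1 hour at 4 °C with 10% biotinylated, detergent-solubilized Sf9 membrane reagent. Cells were enriched on streptavidin microbeads and then FACS-sorted, with low and high (top ~1%) gates set on anti-HA fluorescence for expression and streptavidin fluorescence for reagent binding. Each polyreactivity label reflects the gate a clone came from. Genes were amplified by colony PCR, sequenced by MiSeq 2 × 250 and filtered by CDR length.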

Row | Sequence | polyreactivity (PSR sort gate)
1 | QVQLVESGGGLVQAGGSLRLSCAASGSIFYVNAMGWYRQAPGKDRELVAAISVRGGRTYYADSVKGRFTISRDNAKNTVYLQLNSLKPEDTAVYYCATRISTVGRYDYWGQGTQVTVSS | high polyreactivity
2 | QVQLVESGGGLVQAGGSLRLSCAASGSIFYVYAMGWYRQAPGKERELVAAINTAGGSTFYADSVKGRFTISRDNAKNPVSLQMTSLKPEETAVYYCAAERYRYRSTDTMGYWGQGTQVTVSS | low polyreactivity
3 | QVQLVESGGGLVQAGGSLRLSCAASGSIFYVYAMGWYRQAPGKERELVAAITNYADSVKGRFTISRDNAKNTVYLQMNSLKPEDTAVSYCAADWWRVEMDYWGQGTQVTVSS | low polyreactivity
4 | QVQLVESGGGLVQAGGSLRLSCAASGSIFYVYAMGWYRQAPGKERELVADITTRDGDTYYADSVKGRFTISRDNAKNTVYLQMNSLKPVDTAVYYCAADLNAYPQRAYDYWGQGTQLTVSS | low polyreactivity
5 | QVQLVESGGGLVQAGGSLRLSCAASGSIFYVYVMGWYRPAPGKERELVAGITSGGSTYYADSVKGRFTISRDNAKNTVYFQMNSLKPEDTAVYFCAADLYYWGDYDYWGQGSQVTVSS | low polyreactivity
6 | QVQLVESGGGLVQAGGSLRLSCAASGSIFYVYVMGWYRQAPGKERELVAAIDTGGGDTYYADSVKGRFTISRDNAKNTVYLQMNSLKPEDTAVYYCSTSGPQYYSRNFDYWGQGTQVTVSS | low polyreactivity
7 | QVQLVESGGGLVQAGGSLRLSCAASGSIFYWNVMGWYRQAPGKERELVAGISTSVGNTYYADSVKGRFTISRDNAKNTVYLQMNSLKPEDTAVYYCNVAGKQKPYYVTTRLDYWGQGTQVTVSS | high polyreactivity
8 | QVQLVESGGGLVQAGGSLRLSCAASGSIFYWYAMGWYRQAPGKERELVAAISGSGGTTYYADSVKGRFTISRDNAKNTVYLQMNSLKPEDTAVYYCATRGWYLGSRGYRTRYGYWGQGTQVTVSS | high polyreactivity
9 | QVQLVESGGGLVQAGGSLRLSCAASGSIFYWYAMGWYRQAPGKERELVAAISSGGSTNYADSVKGRFTISRDNAKNTVYLQMNSLKPEDTSVYYCNADIRSFYCEYYTGLDSWGQGTQVTVSS | low polyreactivity
10 | QVQLVESGGGLVQAGGSLRLSCAASGSIFYWYAMGWYRQAPGKERELVAAITYSGDRTYYADSVKGRFTISRDNAKNTVYLQMNSLKPEDTAVYYCAKDRGSGPLDYWGQGTQVTVSS | low polyreactivity
11 | QVQLVESGGGLVQAGGSLRLSCAASGSIFYYFALGWYRQAPGTERELVAAISRSGGRTYYADSVKGRFTISRDNAKNPVYLHMNSLKPEDTAFYYCNTDGYYTTAKYGYWGQGTQVTVSS | high polyreactivity
12 | QVQLVESGGGLVQAGGSLRLSCAASGSIFYYNAKGWYTQAPGKERELVAVISYRSGRTSDADSVKGRFTISRDNAKNTVYLQMNSLKPEDTAVYYCATRDWWRYRHTGVIKFDYWGQGTQVSVSS | high polyreactivity
13 | QVQLVESGGGLVQAGGSLRLSCAASGSIFYYNALGWYRQAPGKERELVAVISYRSGRTSYADSVKGRFTISRDNAKNTVYLQMNSLKPEDTAVYYCNAKPAVSFSRHYYRYDYWGQGTQVTVSS | high polyreactivity
14 | QVQLVESGGGLVQAGGSLRLSCAASGSIFYYNAMGWYRQAPGKERELVAAISSDGGTYYADSVKGRFTISRDNAKNTVYLQMNSLKPEDTAVYYCNAEVFWWDQWYDYWGQGTQVTVSS | high polyreactivity
15 | QVQLVESGGGLVQAGGSLRLSCAASGSIFYYNAMGWYRQAPGKERELVAVISYRSGRTSYADSVKGRFTISRDNAKNTVYLQMNSLKPEDTAVYYCIAKPAVSFSRHYYRYDYWGQGTQVTVSS | high polyreactivity
16 | QVQLVESGGGLVQAGGSLRLSCAASGSIFYYNTMGWYRQAPGKAREFVADISVNGGSTYYADSVKGRFTISRDNAKNTVYLQMNSLKPEDSAVYYCAARRYQRPHGLYGYWGQGTQVTVSS | low polyreactivity
17 | QVQLVESGGGLVQAGGSLRLSCAASGSIFYYYAIGWYRKAPGKEREFVATIRRSGASTYYADSVKGRFTISRDNAKNTVYLQMNSLKPEDTAVYYCNAASARRPIYEAARWSKYDYWGQGTQVTVSS | low polyreactivity
18 | QVQLVESGGGLVQAGGSLRLSCAASGSIFYYYAMARYRPAPGKERELVASITSSGGTTSYADSVKGRFRISRDNAKNTVYLQMISLKPEDTAVYYCNAQVYRYRIGYDYWGQGTQVTVSS | low polyreactivity
19 | QVQLVESGGGLVQAGGSLRLSCAASGSIFYYYAMGWYRQAPGKERELVAAITSGGSTYYADSVKGRFTISRDNAKNTVYYQMNSLIPEDTAVYYCAAVFYAAYLRYVWYSYDYWGQGTQVTVSS | low polyreactivity
20 | QVQLVESGGGLVQAGGSLRLSCAASGSIFYYYAMGWYRQAPGKERELVAAITYRGTRTYYADSVKGRFTISRDNAKNTVYLLMNSLKPEDTAVYYCAAERRIYSSDSWGQGTQVTVSS | high polyreactivity
21 | QVQLVESGGGLVQAGGSLRLSCAASGSIFYYYAMGWYRQAPGKERELVASISSSGSTNYADSVKGRFTISRDNAKNTVYLLMKRLKPEDTAVYYCYADLSLGSYYSYYAYNSWGQGTQVTVSS | low polyreactivity
22 | QVQLVESGGGLVQAGGSLRLSCAASGSIFYYYSMGWYRQAPGKERELVATISSTTSTYADSVKGRFTISRDNAKNTVYLQMNSLKPEDTAVYYCSYDYWGQGTQVTVSS | low polyreactivity

Row | Sequence | polyreactivity (PSR sort gate)
23 | QVQLVESGGGLVQAGGSLRLSCAASGSIGVNAMGWYRQAPGKERELVATISNSGGSTYYADSVKGRFTISRDNAKNTVYLQINSLKPEDTAVYYCAVAVTSYSSKKLYYWGQGTQVTVSS | low polyreactivity
24 | QVQLVESGGGLVQAGGSLRLSCAASGSIGYYAMGWYRQAPGKERELVAAIDWSGGDTYYADSVKGRFTISRDNAKNTVYLQMNSLKPEDTAVYYCAKRLYLKTCAASSADDYWGQGTQVTVSS | low polyreactivity
25 | QVQLVESGGGLVQAGGSLRLSCAASGSIIASNAMGWYRHAPWKERELVAAITNGGRTNYADSVKGRFTISRDNAKNTVYLQMNSMKPEDTAVYYCDALWSRCAGFEYCGQGTQVTVSS | high polyreactivity
26 | QVQLVESGGGLVQAGGSLRLSCAASGSIIGGYAMGWYRQAPGKERELVAAITRSGGRTYYADSVKGRFTISRDNAKNTVYLQMNSLKPEDTAVYYCNADRRRRFGYWGQGTQVTVSS | high polyreactivity
27 | QVQLVESGGGLVQAGGSLRLSCAASGSIIGRNAMGWYRQAPGKERELVAAISTRGGRTYYADSVKGRFTISRDNAKNTVYLQMNSLKPEDTAVYYCADTYQYLKSGYYWGQGTQVTVSS | high polyreactivity
28 | QVQLVESGGGLVQAGGSLRLSCAASGSIIGRYAMGWYRQAPAKERELVATITFRDTSTYYADSVKGRFTISRDNAKNTVYLQMNSLKTEDTAVYYCAAVRADLWDIARYDYWGQGTQVTVSS | low polyreactivity
29 | QVQLVESGGGLVQAGGSLRLSCAASGSIIGTYAMGWYRQAPGKERELVAAISSSGGRTYYADSVKGRFTISRDNAKNTVYLQMNSLKPEDTAVYYCNTRPGTVFRAGGDYWGQGTQVTVSS | high polyreactivity
30 | QVQLVESGGGLVQAGGSLRLSCAASGSIIHRNAMGWYRQAPGKERELVATITSNGGSTYYADSVKGRFTISRDNAKNTVYLQMNSLKPEETAVYYCARKYRSPISALLTGDYWGQGTQVTVSS | low polyreactivity
31 | QVQLVESGGGLVQAGGSLRLSCAASGSIIKWNAMGWDRKAPGQEREFVASITRSGGSTYYADSVKGRITISRDNAKNTVYLQMNSRKPEDTAVFYCARSYGWYRWAGYDYWGKGTQVTVSS | high polyreactivity
32 | QVQLVESGGGLVQAGGSLRLSCAASGSIIPLYAMGWYRQPPGKERELVAAITSNGGRTYYADSVKGRFTISRDNAKNTVYLQMNSLKPEDTAVYYCNKYLLDYRRGRSDYWGQGTQVTVSS | low polyreactivity
33 | QVQLVESGGGLVQAGGSLRLSCAASGSIIQYYAMGWYRQAPGKERELVASITWSGGSTYYADSVKGRFTISRDNAKNTVFLQMNSLKPEDTAVYYCAKRLYLKTWAASTADDYWGQGTQVTVSS | low polyreactivity
34 | QVQLVESGGGLVQAGGSLRLSCAASGSIIRRNVMGWYRQAPGKERELVAASSWSGDRTYYADSVKGRFTISRDNAKNTVYLQMNSLKPEDTAVYYCAAANASPRRYGQYDYWGQGTQVTVSS | high polyreactivity
35 | QVQLVESGGGLVQAGGSLRLSCAASGSIIRYNAMGWYRQAPGKERELVAAITKGAGSTYYADSVKGRFTISRDNAKNTVYLQMNSLKPEDTAVYYWNKARGSGHTYYSWGLGTQVTVSS | high polyreactivity
36 | QVQLVESGGGLVQAGGSLRLSCAASGSIISYYAMGWYRQAPGKERELVAAITASGGSTYYADSVKGRFTISRDNAKNTVYLQMNSLKPEDTAVYYCAAGTHTDYGRYYYWGQGTQVTVSS | low polyreactivity
37 | QVQLVESGGGLVQAGGSLRLSCAASGSIITPNAMGWYRQAPGQERELVAAISSGGSTNYADSVKGRITISRDNAKNTVYFQLTCLKPEDTAVYYCAKSIDGWYWRRRRYDYWGQGTQVTVSS | low polyreactivity
38 | QVQLVESGGGLVQAGGSLRLSCAASGSIITRNAMGWYRQAPGKERELVATIRYRGGSTYYADSVKGRFTISRDNAKNTVFLQMNSLKPEDTAVYYCAARRSHPPDPRFRYGYWGQGTQVTVSS | high polyreactivity
39 | QVQLVESGGGLVQAGGSLRLSCAASGSIITWNAMGWYRQAPGKERELVAAIDWDGGSTYYADSVKGRFTISRDNAKNTVYLQMNSLKPEDTAVYYCAATYGWYTGRYPSGHYYYWGQGTQVTVSS | low polyreactivity
40 | QVQLVESGGGLVQAGGSLRLSCAASGSIITYYAMGWYRQAPGKDSELVAVISASGGRTYYADSVKGRFTISRDNAKNTVYLQMISLKPEDTAVYYCAAYQSIYSFKFGYWGQGTQVTVSS | high polyreactivity
41 | QVQLVESGGGLVQAGGSLRLSCAASGSIIVRYAMGWDRQAPGKERELVAAISKSGGSTHYADSVKGRFTISRDNAKNTVYLQMNSLKPEDTAVYYCAAVYYYRFTTYYYWGQGTQVTVSS | high polyreactivity
42 | QVQLVESGGGLVQAGGSLRLSCAASGSIIVRYAMGWYRQAPGKERELVATITFRDTSTYYADSVKGRFTISRDNAKNTVYLQMNSLKPEDTAVYYCAAVRADLWDIARYDYWGQGTQVTVSS | low polyreactivity
43 | QVQLVESGGGLVQAGGSLRLSCAASGSIIVTYAMGWYRQAPGKERELVATISGGGSTTYADSVKGRFTISRDNAKNTVYLQMNSLKPEDTAVYYCATDARYTSHRTAGYDYWGQGTQVTVSS | low polyreactivity
